Assay results as given in the supplement of paper PMC7877785.
± gives the uncertainty stated by the source.

Experiment: self-splicing fitness, log relative to wild type (ln ratio); higher = more splicing; Tetrahymena group I intron in knt gene, E. coli kanamycin selection, DiMSum; sequences stand for … in CUCUCU…GGAGGGAAAAGUUAUCAGGCAUGCACCUGGUAGCUAGUCUUUAAACCAAUAGAUUGCAUCGGUUUAAAAGGCAAGACCGUCAAAUUGCGGGAAAGGGGUCAACAGCCGUUCAGUACCAAGUCUCAGGGGAAACUUUGAGAUGGCCUUGCAAAGGGUAUGGUAAUAAGCUGACGGACAUGGUCCUAACCACGCAGCCAAGUCCUAAGUCAACAGAUCUUCUGUUGAUAUGGAUGCAGUUCACAGACUAAAUGUCGGUCGGGGAAGAUGUAUUCUUCUCAUAAGAUAUAGUCGGACCUCUCCUUAAUGGGAGCUAGCGGAUGAAGUGAUGCAACACUGGAGCCGCUGGGAACUAAUUUGUAUGCGAAAGUAUAUUGAUUAGUUUUGGAGUACUCGUGGUCG
How it was run: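 The eight P1ex-region nucleotides of an intron in the knt kanamycin-resistance gene on pET-22b(+) were all randomised and the library put into E. coli BL21(DE3). Six replicate transformations were grown overnight at 37°C or 30°C on LB agar with or without 25 μg/mL kanamycin, together with 100 μg/mL carbenicillin, 50 μM IPTG and 0.2% rhamnose. Colonies were pooled and amplicon-sequenced on an Illumina HiSeq 2500. Fitness from DiMSum is the error-weighted combination of wild-type-normalised replicate fold changes, kanamycin over none.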

| Sequence | self-splicing fitness (ln) (30 °C) | self-splicing fitness (ln) (37 °C) |
| --- | --- | --- |
| CCACAGCAAUAUUACGUGUC | -3.11 ± 0.15 | -2.68 ± 0.16 |
| CCACAGCAAUAUUACGUUAA | -3.12 ± 0.14 | -2.48 ± 0.14 |
| CCACAGCAAUAUUACGUUGA | -3.67 ± 0.17 | -3.31 ± 0.18 |
| CCAGAGCAAUAUUACGAAGC | -3.1 ± 0.24 | -2.71 ± 0.27 |
| CCAGAGCAAUAUUACGAAUA | -2.84 ± 0.23 | -3.27 ± 0.42 |
| CCAGAGCAAUAUUACGAAUG | -1.73 ± 0.097 | -0.868 ± 0.12 |
| CCAGAGCAAUAUUACGAGAC | -4.31 ± 0.46 | -2.66 ± 0.3 |
| CCAGAGCAAUAUUACGAGGU | -3.71 ± 0.24 | -2.77 ± 0.29 |
| CCAGAGCAAUAUUACGAUCC | – | -1.91 ± 0.38 |
| CCAGAGCAAUAUUACGAUUA | -3.29 ± 0.3 | – |
| CCAGAGCAAUAUUACGCCGA | -2.35 ± 0.28 | -2.65 ± 0.44 |
| CCAGAGCAAUAUUACGCCUU | -3.57 ± 0.25 | -2.37 ± 0.25 |
| CCAGAGCAAUAUUACGCGAG | -2.77 ± 0.17 | -2.36 ± 0.25 |
| CCAGAGCAAUAUUACGCGUC | -3.45 ± 0.24 | -3 ± 0.3 |
| CCAGAGCAAUAUUACGCUAA | -2.74 ± 0.24 | -2.57 ± 0.24 |
| CCAGAGCAAUAUUACGGGCG | -1.5 ± 0.085 | -0.383 ± 0.1 |
| CCAGAGCAAUAUUACGGGUC | -3.22 ± 0.43 | -1.53 ± 0.28 |
| CCAGAGCAAUAUUACGGUAC | -3.29 ± 0.17 | -1.52 ± 0.26 |
| CCAGAGCAAUAUUACGUAGA | -1.88 ± 0.12 | -2.08 ± 0.23 |
| CCAGAGCAAUAUUACGUGAU | -3.93 ± 0.22 | -2.67 ± 0.28 |
| CCAGAGCAAUAUUACGUGCC | -3.42 ± 0.38 | -2.76 ± 0.32 |
| CCAGAGCAAUAUUACGUUGU | -3.81 ± 0.2 | -3 ± 0.26 |

| Sequence | self-splicing fitness (ln) (30 °C) | self-splicing fitness (ln) (37 °C) |
| --- | --- | --- |
| CCAUAGCAAUAUUACGACGG | -3.41 ± 0.14 | -1.67 ± 0.13 |
| CCAUAGCAAUAUUACGACGU | -3.3 ± 0.35 | -2.13 ± 0.23 |
| CCAUAGCAAUAUUACGACUU | -2.46 ± 0.17 | -3.03 ± 0.32 |
| CCAUAGCAAUAUUACGAGCU | -3.04 ± 0.36 | -2.9 ± 0.47 |
| CCAUAGCAAUAUUACGAGGC | -3.03 ± 0.15 | -3.27 ± 0.21 |
| CCAUAGCAAUAUUACGCAAG | -2.84 ± 0.17 | -0.562 ± 0.13 |
| CCAUAGCAAUAUUACGCAGC | – | -3.34 ± 0.42 |
| CCAUAGCAAUAUUACGCCAC | – | -1.75 ± 0.49 |
| CCAUAGCAAUAUUACGCCAG | -1.94 ± 0.14 | -0.423 ± 0.14 |
| CCAUAGCAAUAUUACGCCAU | -4.18 ± 0.31 | -2.41 ± 0.25 |
| CCAUAGCAAUAUUACGCCUC | -3.21 ± 0.4 | -1.74 ± 0.29 |
| CCAUAGCAAUAUUACGCCUU | -3.13 ± 0.22 | -3.02 ± 0.22 |
| CCAUAGCAAUAUUACGCGUA | -3.19 ± 0.4 | -2.75 ± 0.41 |
| CCAUAGCAAUAUUACGCUCA | -3.11 ± 0.18 | -2.16 ± 0.25 |
| CCAUAGCAAUAUUACGGACU | -3.84 ± 0.33 | -1.85 ± 0.29 |
| CCAUAGCAAUAUUACGGCCC | -1.72 ± 0.22 | – |
| CCAUAGCAAUAUUACGGCCG | -0.548 ± 0.098 | -0.739 ± 0.12 |
| CCAUAGCAAUAUUACGGCUC | -2.85 ± 0.36 | -2.59 ± 0.45 |
| CCAUAGCAAUAUUACGGGCA | -3.32 ± 0.26 | -2.95 ± 0.29 |
| CCAUAGCAAUAUUACGGGGG | -3.01 ± 0.16 | -3.36 ± 0.31 |
| CCAUAGCAAUAUUACGUAGG | -2.29 ± 0.078 | -1.37 ± 0.094 |
